Reference: the supplement of paper PMC7877785
± gives the uncertainty stated by the source.

Test: self-splicing fitness, log relative to wild type (ln ratio); higher = more splicing; Tetrahymena group I intron in knt gene, E. coli kanamycin selection, DiMSum; sequences stand for … in CUCUCU…GGAGGGAAAAGUUAUCAGGCAUGCACCUGGUAGCUAGUCUUUAAACCAAUAGAUUGCAUCGGUUUAAAAGGCAAGACCGUCAAAUUGCGGGAAAGGGGUCAACAGCCGUUCAGUACCAAGUCUCAGGGGAAACUUUGAGAUGGCCUUGCAAAGGGUAUGGUAAUAAGCUGACGGACAUGGUCCUAACCACGCAGCCAAGUCCUAAGUCAACAGAUCUUCUGUUGAUAUGGAUGCAGUUCACAGACUAAAUGUCGGUCGGGGAAGAUGUAUUCUUCUCAUAAGAUAUAGUCGGACCUCUCCUUAAUGGGAGCUAGCGGAUGAAGUGAUGCAACACUGGAGCCGCUGGGAACUAAUUUGUAUGCGAAAGUAUAUUGAUUAGUUUUGGAGUACUCGUGGUCG
Summary of the method: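 The eight P1ex-region nucleotides of an intron in the knt kanamycin-resistance gene on pET-22b(+) were all randomised and the library put into E. coli BL21(DE3). Six replicate transformations were grown overnight at 37°C or 30°C on LB agar with or without 25 μg/mL kanamycin, together with 100 μg/mL carbenicillin, 50 μM IPTG and 0.2% rhamnose. Colonies were pooled and amplicon-sequenced on an Illumina HiSeq 2500. Fitness from DiMSum is the error-weighted combination of wild-type-normalised replicate fold changes, kanamycin over none.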

| Sequence | self-splicing fitness (ln) (30 °C) | self-splicing fitness (ln) (37 °C) |
| --- | --- | --- |
| GCACAGCAAUAUUACGCCCU | -0.527 ± 0.094 | 0.00502 ± 0.11 |
| GCACAGCAAUAUUACGCUUU | -0.861 ± 0.055 | -0.0512 ± 0.068 |
| GCACAGCAAUAUUACGGAUG | -2.18 ± 0.075 | -1.61 ± 0.096 |
| GCACAGCAAUAUUACGGCAC | -0.752 ± 0.061 | -0.122 ± 0.073 |
| GCACAGCAAUAUUACGGCCU | -1.66 ± 0.11 | -0.461 ± 0.12 |
| GCACAGCAAUAUUACGGGGA | -2.29 ± 0.11 | -1.5 ± 0.1 |
| GCACAGCAAUAUUACGGGUC | -3.81 ± 0.17 | -1.62 ± 0.097 |
| GCACAGCAAUAUUACGGUAG | -3.61 ± 0.15 | -1.98 ± 0.11 |
| GCACAGCAAUAUUACGGUUC | -0.415 ± 0.055 | -0.0499 ± 0.073 |
| GCACAGCAAUAUUACGUACU | -1.2 ± 0.069 | -1.2 ± 0.094 |
| GCACAGCAAUAUUACGUCAA | -0.993 ± 0.079 | -0.565 ± 0.082 |
| GCACAGCAAUAUUACGUCUC | -0.14 ± 0.056 | 0.38 ± 0.059 |
| GCACAGCAAUAUUACGUGUU | -3.75 ± 0.089 | -2.07 ± 0.085 |
| GCACAGCAAUAUUACGUUGC | -3.95 ± 0.17 | -2.57 ± 0.17 |
| GCAGAGCAAUAUUACGAGAU | -2.04 ± 0.29 | -2.15 ± 0.39 |
| GCAGAGCAAUAUUACGAGCU | -4.1 ± 0.42 | -1.17 ± 0.26 |
| GCAGAGCAAUAUUACGAGUG | -4.02 ± 0.48 | -2.25 ± 0.26 |
| GCAGAGCAAUAUUACGAUGU | -4.4 ± 0.34 | -2.42 ± 0.19 |
| GCAGAGCAAUAUUACGCAAC | -1.53 ± 0.35 | -2.13 ± 0.43 |
| GCAGAGCAAUAUUACGCAAU | – | -1.61 ± 0.28 |
| GCAGAGCAAUAUUACGCGCA | -2.97 ± 0.24 | -1.61 ± 0.17 |
| GCAGAGCAAUAUUACGGAGA | – | -2.09 ± 0.43 |
| GCAGAGCAAUAUUACGGAUC | -2.59 ± 0.34 | -1.6 ± 0.29 |
| GCAGAGCAAUAUUACGGCAU | -3.03 ± 0.17 | -0.473 ± 0.11 |
| GCAGAGCAAUAUUACGGCUU | -1.92 ± 0.27 | -0.671 ± 0.21 |

| Sequence | self-splicing fitness (ln) (30 °C) | self-splicing fitness (ln) (37 °C) |
| --- | --- | --- |
| GCAGAGCAAUAUUACGGUUG | -3.01 ± 0.34 | -2.87 ± 0.47 |
| GCAGAGCAAUAUUACGUCAA | -2.73 ± 0.45 | – |
| GCAGAGCAAUAUUACGUGAG | -1.62 ± 0.08 | -1.65 ± 0.1 |
| GCAGAGCAAUAUUACGUGCU | -3.24 ± 0.15 | -2.73 ± 0.22 |
| GCAGAGCAAUAUUACGUGUG | -2.07 ± 0.22 | -2.63 ± 0.25 |
| GCAGAGCAAUAUUACGUUAG | -3.42 ± 0.26 | -1.61 ± 0.17 |
| GCAUAGCAAUAUUACGACAU | -1.03 ± 0.013 | -0.295 ± 0.032 |
| GCAUAGCAAUAUUACGACGG | – | -1.01 ± 0.41 |
| GCAUAGCAAUAUUACGAGCC | -2.61 ± 0.2 | -2.49 ± 0.33 |
| GCAUAGCAAUAUUACGAGGG | -3.43 ± 0.23 | -1.69 ± 0.17 |
| GCAUAGCAAUAUUACGAUGA | -0.554 ± 0.079 | 0.0691 ± 0.07 |
| GCAUAGCAAUAUUACGCAAG | -3.49 ± 0.41 | -2.31 ± 0.33 |
| GCAUAGCAAUAUUACGCAGC | – | -1.68 ± 0.44 |
| GCAUAGCAAUAUUACGCCAU | -4.39 ± 0.46 | -2.23 ± 0.28 |
| GCAUAGCAAUAUUACGCCCU | -1.78 ± 0.35 | -0.121 ± 0.33 |
| GCAUAGCAAUAUUACGCCUG | -1.22 ± 0.081 | -1.49 ± 0.1 |
| GCAUAGCAAUAUUACGCGCC | -3.02 ± 0.49 | -1.93 ± 0.36 |
| GCAUAGCAAUAUUACGCUGG | – | -2.15 ± 0.49 |
| GCAUAGCAAUAUUACGGCAC | -1.15 ± 0.14 | -0.425 ± 0.15 |
| GCAUAGCAAUAUUACGGGAU | -1.41 ± 0.085 | -0.646 ± 0.11 |
| GCAUAGCAAUAUUACGGGCC | – | -1.97 ± 0.27 |
| GCAUAGCAAUAUUACGGGGG | -2.53 ± 0.23 | -2.13 ± 0.23 |
| GCAUAGCAAUAUUACGGUGC | -3.71 ± 0.46 | – |
| GCAUAGCAAUAUUACGGUUA | -1.34 ± 0.093 | -0.638 ± 0.084 |
| GCAUAGCAAUAUUACGUAGA | -2.41 ± 0.16 | -0.999 ± 0.17 |

| Sequence | self-splicing fitness (ln) (30 °C) | self-splicing fitness (ln) (37 °C) |
| --- | --- | --- |
| GCAUAGCAAUAUUACGUGUG | -3.17 ± 0.14 | -1.57 ± 0.12 |
| GCAUAGCAAUAUUACGUUCG | -1.43 ± 0.08 | 0.166 ± 0.09 |
| GCAUAGCAAUAUUACGUUGC | -3.65 ± 0.21 | -1.72 ± 0.21 |
| GCCAAGCAAUAUUACGACAC | -0.962 ± 0.06 | -0.0161 ± 0.08 |
| GCCAAGCAAUAUUACGACAG | -3.63 ± 0.2 | -3.8 ± 0.39 |
| GCCAAGCAAUAUUACGAGGU | -3.83 ± 0.18 | -2.74 ± 0.26 |
| GCCAAGCAAUAUUACGCAUG | -4.41 ± 0.46 | -2.22 ± 0.3 |
| GCCAAGCAAUAUUACGCCUU | -2.83 ± 0.13 | -1.26 ± 0.12 |
| GCCAAGCAAUAUUACGCGGA | -1.1 ± 0.099 | -0.277 ± 0.11 |
| GCCAAGCAAUAUUACGCGGU | -3.73 ± 0.2 | -3.25 ± 0.27 |
| GCCAAGCAAUAUUACGCUGU | -2.26 ± 0.12 | -1.36 ± 0.13 |
| GCCAAGCAAUAUUACGGACC | -3.32 ± 0.15 | -0.612 ± 0.13 |
| GCCAAGCAAUAUUACGGCAC | -2.04 ± 0.12 | -0.268 ± 0.12 |
| GCCAAGCAAUAUUACGGCAU | -3.55 ± 0.21 | -2.55 ± 0.19 |
| GCCAAGCAAUAUUACGGCUC | -1.99 ± 0.071 | -0.526 ± 0.091 |
| GCCAAGCAAUAUUACGGGAG | -3.55 ± 0.19 | -1.46 ± 0.13 |
| GCCAAGCAAUAUUACGGGCG | -1.36 ± 0.09 | -0.322 ± 0.11 |
| GCCAAGCAAUAUUACGUACC | -1.28 ± 0.1 | -0.683 ± 0.15 |
| GCCAAGCAAUAUUACGUAGU | -0.579 ± 0.051 | -0.395 ± 0.06 |
| GCCAAGCAAUAUUACGUAUC | -1.66 ± 0.066 | -0.646 ± 0.082 |
| GCCAAGCAAUAUUACGUCAU | -2.96 ± 0.22 | -2.59 ± 0.18 |
| GCCAAGCAAUAUUACGUCGG | -2.95 ± 0.18 | -2.28 ± 0.24 |
| GCCCAGCAAUAUUACGAAGG | -3.32 ± 0.14 | -2.42 ± 0.21 |
| GCCCAGCAAUAUUACGAAGU | -0.333 ± 0.054 | 0.22 ± 0.069 |
| GCCCAGCAAUAUUACGACGU | 0.175 ± 0.053 | 0.441 ± 0.067 |

| Sequence | self-splicing fitness (ln) (30 °C) | self-splicing fitness (ln) (37 °C) |
| --- | --- | --- |
| GCCCAGCAAUAUUACGACUC | -0.305 ± 0.059 | 0.916 ± 0.087 |
| GCCCAGCAAUAUUACGAGAC | -2.15 ± 0.093 | -0.787 ± 0.085 |
| GCCCAGCAAUAUUACGAGAG | -2.63 ± 0.096 | -1.42 ± 0.1 |
| GCCCAGCAAUAUUACGAGGA | -0.441 ± 0.075 | -0.147 ± 0.086 |
| GCCCAGCAAUAUUACGAUAC | -2.24 ± 0.086 | -0.313 ± 0.094 |
| GCCCAGCAAUAUUACGAUUU | -1.07 ± 0.076 | -0.735 ± 0.1 |
| GCCCAGCAAUAUUACGCAAG | -2.79 ± 0.093 | -2.46 ± 0.14 |
| GCCCAGCAAUAUUACGCAGU | -0.834 ± 0.049 | 0.141 ± 0.056 |
| GCCCAGCAAUAUUACGCAUC | -0.67 ± 0.075 | -0.106 ± 0.092 |
| GCCCAGCAAUAUUACGCCCC | -1.48 ± 0.15 | -0.245 ± 0.22 |
| GCCCAGCAAUAUUACGCCUG | -3.5 ± 0.3 | -2.64 ± 0.26 |
| GCCCAGCAAUAUUACGCGGA | -0.775 ± 0.098 | -0.201 ± 0.12 |
| GCCCAGCAAUAUUACGCGUU | 0.0719 ± 0.046 | 0.222 ± 0.065 |
| GCCCAGCAAUAUUACGGAUA | -0.88 ± 0.078 | 0.215 ± 0.089 |
| GCCCAGCAAUAUUACGGCCG | -1.11 ± 0.28 | – |
| GCCCAGCAAUAUUACGGCCU | -2.68 ± 0.16 | -0.992 ± 0.13 |
| GCCCAGCAAUAUUACGGGAC | -4.73 ± 0.31 | -2.48 ± 0.14 |
| GCCCAGCAAUAUUACGUCAA | -2.62 ± 0.1 | -1.68 ± 0.097 |
| GCCCAGCAAUAUUACGUGUC | -0.887 ± 0.053 | -0.349 ± 0.066 |
| GCCCAGCAAUAUUACGUGUG | -2.21 ± 0.08 | -1.69 ± 0.081 |
| GCCGAGCAAUAUUACGAACU | -2.13 ± 0.3 | -0.52 ± 0.42 |
| GCCGAGCAAUAUUACGAAGU | -2.51 ± 0.35 | -1.14 ± 0.24 |
| GCCGAGCAAUAUUACGAGAC | -2.93 ± 0.11 | -1.54 ± 0.1 |
